Assay results as given in article PMC8501957.

Target: MvaT F36D/M44D (P. aeruginosa) (UniProt Q9HW86)
Experiment: ITC; gp4 injected into MvaT F36D/M44D in the cell; 20 C; 20 mM Bis-Tris pH 6, 50 mM KCl, 16 mM MgCl2; one set of sites model

Substance	Kd [nM]	stoichiometry N
gp4 K42E/K45E (natural protein)	1360	0.52
gp4 of Pseudomonas phage LUZ24 (natural protein)	170	0.56
